Test results as given in paper PMC4569319 (Molecular Biology of the Cell, 2015).

Target: Murine ΔIBB-importin α1 (mouse, UniProt P52293 70-529)
Assay: crystal structure

B1: Pom121NLS(291-320), GST cleaved off (peptide)
chain: LKEKKKRTVAEEDQLHLDGQENKRRRHDSS
binding result: binds
